Measured values published in patent US20240132578A1.

How the values were obtained:
Experiment in all cases: cell-based or functional assay
[1] = target: HIV-1 envelope glycoprotein (Env) of isolate MGRM-Chronic-B-020, on pseudovirus (HIV-1)
[2] = target: HIV-1 envelope glycoprotein (Env) of isolate NL43, on pseudovirus (HIV-1)
[3] = target: HIV-1 envelope glycoprotein (Env) of isolate SC422661.8, on pseudovirus (HIV-1)
[4] = target: HIV-1 envelope glycoprotein (Env) of isolate 92RW008, subtype A (HIV-1)
[5] = target: HIV-1 JR-CSF Env N301A (HIV-1 (isolate JR-CSF, clade B)) (UniProt P20871)
[6] = target: HIV-1 envelope glycoprotein (Env) of isolate MGRM-Chronic-B-003, on pseudovirus (HIV-1)
[7] = target: HIV-1 envelope glycoprotein (Env) of isolate 93WR029, subtype A (HIV-1)
[8] = target: HIV-1 envelope glycoprotein (Env) of isolate MG RM-A-014, subtype A (HIV-1)
[9] = target: HIV-1 Env of isolate MGRM-F1-015 (pseudovirus) (HIV-1)
[10] = target: HIV-1 Env of isolate APV_13, clade B (HIV-1)
[11] = target: HIV-1 Env of isolate MGRM-A-013 (clade A pseudovirus) (HIV-1)
[12] = target: HIV-1 isolate 94UG114 envelope glycoprotein (Env), clade D, on pseudovirus (HIV-1)
[13] = target: HIV-1 Env of pseudovirus MGRM-F1-021 (clade F) (HIV-1)
[14] = target: HIV-1 envelope glycoprotein (Env) of isolate LAVI_C3 (HIV-1)
[15] = target: HIV-1 92TH021 Env (pseudovirus) (HIV-1)
[16] = target: HIV-1 Env of isolate NL43, clade B (HIV-1)
[17] = target: HIV-1 MGRM-AG-006 Env (pseudovirus) (HIV-1)
[18] = target: HIV-1 MGRM-AG-012 Env (pseudovirus) (HIV-1)
[19] = target: HIV-1 Env of isolate MGRM-A-004 (clade A pseudovirus) (HIV-1)
[20] = target: HIV-1 IAVI-C3 envelope (Env) on pseudovirus (HIV-1)
[21] = target: HIV-1 envelope glycoprotein (Env) of isolate MGRM-C-022 (HIV-1)
[22] = target: HIV-1 Env of isolate MGRM-D-003 (clade D pseudovirus) (HIV-1)
[23] = target: HIV-1 Env of isolate MGRM-A-010 (clade A pseudovirus) (HIV-1)
[24] = target: HIV-1 Env of isolate 92RW009 (clade A pseudovirus) (HIV-1)
[25] = target: HIV-1 MGRM-G-004 Env (pseudovirus) (HIV-1)
[26] = target: HIV-1 CMU02 envelope protein (Env) on pseudovirus (HIV-1)
[27] = target: HIV-1 93IN905 Env (HIV-1)

Chain of 1443_C16 (PG16) (TCN-116) (antibody) (VH): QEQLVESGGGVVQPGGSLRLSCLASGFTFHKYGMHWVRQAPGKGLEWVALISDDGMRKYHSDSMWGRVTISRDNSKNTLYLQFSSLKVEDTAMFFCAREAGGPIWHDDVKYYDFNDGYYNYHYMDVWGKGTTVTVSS
Chain of 1443_C16 (PG16) (TCN-116) (antibody) (VL): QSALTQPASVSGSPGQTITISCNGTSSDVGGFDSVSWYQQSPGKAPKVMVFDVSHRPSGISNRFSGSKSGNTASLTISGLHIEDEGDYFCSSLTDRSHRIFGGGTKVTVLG

Substance	IC50, pseudovirus neutralization [1] [µg/mL]	IC50, pseudovirus neutralization [2] [µg/mL]	IC50, pseudovirus neutralization [3] [µg/mL]	IC50, pseudovirus neutralization [4] [µg/mL]	IC50 (µg/ml), pseudovirus neutralization [10] [µg/mL]	IC50 (µg/ml), pseudovirus neutralization [11] [µg/mL]	IC50 (µg/ml), pseudovirus neutralization [12] [µg/mL]	IC50 [13] [µg/mL]	IC50 (µg/ml), pseudovirus neutralization [14] [µg/mL]	IC50 (µg/ml), pseudovirus neutralization [15] [µg/mL]	IC50 (µg/ml), pseudovirus neutralization [16] [µg/mL]	IC50 (µg/ml), pseudovirus neutralization [17] [µg/mL]	IC50 (µg/ml), pseudovirus neutralization [18] [µg/mL]	IC50 (µg/ml), pseudovirus neutralization [19] [µg/mL]	neutralization IC50 [20] [µg/mL]	IC50 (µg/ml), pseudovirus neutralization [21] [µg/mL]	IC50, pseudovirus neutralization [22] [µg/mL]	IC50 (µg/ml), pseudovirus neutralization [23] [µg/mL]	IC50 (µg/ml), pseudovirus neutralization [24] [µg/mL]	IC50 (µg/ml), pseudovirus neutralization [25] [µg/mL]	further results
5145_B14 (PGT-127) (antibody)	0.05	> 50	36.7	0.012																	Fold IC50 increase relative to wild-type [5]: > 250 fold; IC50, pseudovirus neutralization [6]: 0.12 µg/mL; IC50, pseudovirus neutralization [7]: > 50 µg/mL; IC50, pseudovirus neutralization [8]: 0.04 µg/mL; IC50 (µg/mL), pseudovirus neutralization [9]: > 50 µg/mL
1495_C14 (PGC14) (antibody)					> 50	> 50	> 50	46	12	> 50	40	> 50	> 50	> 50	> 50	> 50	> 50	> 50	> 50	> 50	
5123_A06 (PGT-125) (antibody)	0.087	> 50	30.1	0.004																	IC50 (ug/mL), pseudovirus neutralization [26]: > 10 µg/mL; Neutralization by PGT-125, IC50 [15]: 0.0066 µg/mL; Neutralization by PGT-125, IC80 [15]: 0.0292 µg/mL; Neutralization by PGT-125, IC90 [15]: 0.0701 µg/mL; Neutralization by PGT-125, IC95 [15]: 0.157 µg/mL; IC50, pseudovirus neutralization [27]: 0.0137 µg/mL; Fold IC50 increase relative to wild-type [5]: 213 fold; IC50, pseudovirus neutralization [6]: 0.157 µg/mL; IC50, pseudovirus neutralization [7]: > 50 µg/mL; IC50, pseudovirus neutralization [8]: 13.9 µg/mL; IC50 (µg/mL), pseudovirus neutralization [9]: > 50 µg/mL
5141_B17 (PGT-126) (antibody)	0.021	> 50	0.119	0.008																	IC50 (ug/mL), pseudovirus neutralization [26]: > 10 µg/mL; IC50, pseudovirus neutralization [27]: 0.0194 µg/mL; Fold IC50 increase relative to wild-type [5]: 314 fold; IC50, pseudovirus neutralization [6]: 0.041 µg/mL; IC50, pseudovirus neutralization [7]: > 50 µg/mL; IC50, pseudovirus neutralization [8]: 0.01 µg/mL; IC50 (µg/mL), pseudovirus neutralization [9]: > 50 µg/mL
1443_C16 (PG16) (TCN-116) (antibody)					> 50	0.09	> 50	> 50	9.55	0.1	0.02	> 50	25.1	0.04	14.8	0.25	0.01	0.004	0.11	> 50	
4E10 (antibody)					7.33	1.46	9.72	1.87	2.85	1.17	4.67	1.76	0.86	3.14	5	5.71	2.49	14.4	> 50	1.47	
2G12 (antibody)					9.24	> 50	13.9	14.1	> 50	> 50	0.49	3.92	1.94	> 50	> 50	> 50	> 50	17	26.1	> 50	
